# Reference: US20240029824A1 (University of Washington, published 2024)
# T1: DHT08 chain C
# T1 chain: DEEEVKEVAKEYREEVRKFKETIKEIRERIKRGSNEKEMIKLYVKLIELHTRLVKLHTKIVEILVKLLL
# T2: DHT08 chain B
# T2 chain: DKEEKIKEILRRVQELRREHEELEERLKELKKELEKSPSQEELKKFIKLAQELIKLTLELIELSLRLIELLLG
# T3: C4-DHT03-02 chain B
# T3 construct: four copies in the A4B4C4 ring
# T3 chain: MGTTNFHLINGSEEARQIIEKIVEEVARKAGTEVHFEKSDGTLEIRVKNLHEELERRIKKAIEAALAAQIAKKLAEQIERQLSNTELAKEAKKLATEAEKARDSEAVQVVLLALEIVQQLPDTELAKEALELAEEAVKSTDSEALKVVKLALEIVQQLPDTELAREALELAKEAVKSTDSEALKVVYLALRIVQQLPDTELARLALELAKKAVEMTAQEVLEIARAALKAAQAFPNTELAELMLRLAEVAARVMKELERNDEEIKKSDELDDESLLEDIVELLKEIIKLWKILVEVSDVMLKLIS
# T4: DHT03 chain C (SEQ ID NO: 59)
# T4 chain: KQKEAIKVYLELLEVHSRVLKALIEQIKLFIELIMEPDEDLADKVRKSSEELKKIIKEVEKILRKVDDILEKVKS
# T5: DHT07 chain B
# T5 chain: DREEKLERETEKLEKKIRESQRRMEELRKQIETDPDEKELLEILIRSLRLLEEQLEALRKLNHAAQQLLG
# T6: DHT07 chain C
# T6 chain: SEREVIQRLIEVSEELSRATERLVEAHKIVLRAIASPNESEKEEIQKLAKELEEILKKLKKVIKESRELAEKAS
# T7: DHT03_variant_AB-3 chain B
# T7 chain: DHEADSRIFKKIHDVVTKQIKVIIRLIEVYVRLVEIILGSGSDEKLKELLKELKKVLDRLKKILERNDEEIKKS
# T8: DHT03_variant_AB-1 chain B
# T8 chain: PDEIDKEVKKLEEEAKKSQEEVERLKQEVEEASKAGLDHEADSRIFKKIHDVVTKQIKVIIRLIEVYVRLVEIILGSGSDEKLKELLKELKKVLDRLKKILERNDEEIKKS
# T9: DHT03_variant_AB-4 chain B
# T9 chain: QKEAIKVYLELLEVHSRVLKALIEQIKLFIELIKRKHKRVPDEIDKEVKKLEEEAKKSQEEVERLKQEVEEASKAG
# T10: DHT09 chain C
# T10 chain: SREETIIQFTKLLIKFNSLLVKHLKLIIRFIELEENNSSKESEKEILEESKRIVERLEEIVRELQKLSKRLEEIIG
# T11: DHT09 chain B
# T11 chain: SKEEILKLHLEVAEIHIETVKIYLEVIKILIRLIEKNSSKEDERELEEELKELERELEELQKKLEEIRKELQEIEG
# T12: DHT04 chain C
# T12 chain: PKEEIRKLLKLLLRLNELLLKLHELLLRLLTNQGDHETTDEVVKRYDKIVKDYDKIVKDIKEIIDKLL
# T13: DHT04 chain B
# T13 chain: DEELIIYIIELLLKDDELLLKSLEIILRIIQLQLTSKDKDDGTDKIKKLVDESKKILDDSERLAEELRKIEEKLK
# T14: DHT06 chain B
# T14 chain: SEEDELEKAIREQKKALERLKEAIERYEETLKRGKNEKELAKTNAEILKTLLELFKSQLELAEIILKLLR
# T15: DHT06 chain C
# T15 chain: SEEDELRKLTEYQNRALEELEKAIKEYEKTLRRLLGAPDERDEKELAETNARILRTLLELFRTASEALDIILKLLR
# T16: DHT02 chain C
# T16 chain: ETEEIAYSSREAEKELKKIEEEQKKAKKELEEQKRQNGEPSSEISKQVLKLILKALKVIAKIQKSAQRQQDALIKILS
# T17: DHT02 chain B
# T17 chain: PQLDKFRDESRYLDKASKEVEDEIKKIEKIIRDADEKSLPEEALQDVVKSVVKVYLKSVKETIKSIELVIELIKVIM
# T18: DHT10 chain B
# T18 chain: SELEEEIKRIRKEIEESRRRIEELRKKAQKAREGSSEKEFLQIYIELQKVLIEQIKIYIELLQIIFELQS
# T19: DHT10 chain C
# T19 chain: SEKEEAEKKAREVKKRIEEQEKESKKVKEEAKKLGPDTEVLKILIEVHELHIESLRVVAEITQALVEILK
# T20: DHT03_variant_AB-2 chain B
# T20 chain: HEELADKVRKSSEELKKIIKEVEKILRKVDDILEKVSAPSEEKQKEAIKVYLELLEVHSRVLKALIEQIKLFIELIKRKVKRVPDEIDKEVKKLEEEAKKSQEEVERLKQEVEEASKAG
# T21: DHT03_variant_ABC-2 chain B
# T21 chain: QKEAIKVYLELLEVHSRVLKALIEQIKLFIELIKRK
# T22: DHT03_variant_ABC-2 chain C
# T22 chain: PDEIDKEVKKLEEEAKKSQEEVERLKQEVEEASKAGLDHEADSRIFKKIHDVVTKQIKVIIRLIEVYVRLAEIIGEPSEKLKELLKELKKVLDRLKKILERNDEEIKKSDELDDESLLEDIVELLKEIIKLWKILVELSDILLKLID
# B1: DHT08 chain A (designed binder)
# chain: SKEEIEKELKKLKKELEELKREIEKSTKKLEEVRGSNSEKELIQIIKEQIEISERLLEISTRLLEIIIKLLG
# B2: C4-DHT03-02 chain A (designed binder)
# chain: MGNTHFIVVHGGEEARQLAETAVREISKKEGTEVRFEKKDGLLSIEVKNLSEELQRLIQELLQLLVRLAALLEAVRAVEEAIKRNPDNDEAVETAVRLARELKKVAELLQELAKKAGVPAILRGALLALEVAVRAVELAIKSNPDNDEAVETAVRLARELLKVAAELAERAAKTKDEELIKLAQRAIEVAQRAVELAKKSNKDNEEAEKTRLALEAMELALQIFRQLKNTELAREAIELATEAAKATDSEALKVVKLALKIVQQLPDTELAKEALELAKEAVKSTDSEALKVVELALEIVQQLPDTELAKEALKLAKEAVKSTDSEALKVVYLALRIVQQLPDTELAREALELAKEAVKSTDSEQLEVVRLALEIVQLAPDTRLARAALKLAKEAVKSTDQEELKKVKAILRVASEVLKLEEEAKKSQEEVERLKQEVEKASKAGLDHEGDSRIFKKIHDVVTKQIKVILRLIAVYAELVAIIG
# notes: four copies in the A4B4C4 ring
# B3: DHT07 chain A (designed binder)
# chain: SEKELIQLYVEAQELYAEAFELQVEIFKLLVKILSANSPKDEKEKIEKRIEEVQKRIKEIQERLQEIQKRLEEAG
# B4: DHT03_variant_AB-3 chain A (designed binder)
# chain: DESLLEDIVELLKEIIKLWKILVELSDILLKLIGGDDKVRKSSEELKKIIKEVEKILRKVDDILYKVSAPSEEKQKEAIKVYLELLEVHSRVLKALIEQIKLFIELIKRKHKRVPDEIDKEVKKLEEEAKKSQEEVERLKQEVEEASKAG
# B5: DHT03_variant_AB-1 chain A (designed binder)
# chain: DESLLEDIVELLKEIIKLWKILVELSDILLKLIGGDDKVRKSSEELKKIIKEVEKILRKVDDILYKVSAPSEEKQKEAIKVYLELLEVHSRVLKALIEQIKLFIELIKR
# B6: DHT03_variant_AB-4 chain A (designed binder)
# chain: DHEADSRIFKKIHDVVTKQIKVIIRLIEVYVRLVEIILGSGSDEKLKELLKELKKVLDRLKKILERNDEEIKKSDELDDESLLEDIVELLKEIIKLWKILVELSDILLKLIGGDDKVRKSSEELKKIIKEVEKILRKVDDILYKVS
# B7: DHT09 chain A (designed binder)
# chain: SEDEDLIRSVRVIQKSVEIILEMVKIIQELLKSTSEEELKELLKKLKRLIEKLEELLRQYEELLKKIKG
# B8: DHT04 chain A (designed binder)
# chain: PERELLELLIRLFNSQVKLFELQKELLELLRELLEENSEDNSRKLEDLLRKIQELLKENQDLLYTVEDVLRKLK
# B9: DHT06 chain A (designed binder)
# chain: DEKELAKTNAEILKTLLELFEAESRLQEIILKLLERPDEKEEDELKRALERLKEALERLEEAIKRYEETLKRLL
# B10: DHT02 chain A (designed binder)
# chain: PDSDELRKLLKQLEDLLQQLKDLIDKAERHNGDNDVILELHEIYLRLLDIYQKLAKIILKLLR
# B11: DHT10 chain A (designed binder)
# chain: SEEEELKKLQEEIKKLKKQVERLEKESKELEKRLEKSPSEEIAKELLRITAELVEISEELAEATKRLLEIAG
# B12: DHT03_variant_AB-2 chain A (designed binder)
# chain: DHEADSRIFKKIHDVVTKQIKVIIRLIEVYVRLVEIILGSGSDEKLKELLKELKKVLDRLKKILERNDEEIKKSDELDDESLLEDIVELLKEIIKLWKILVELSDILLKLID
# Tests used:
# DHT08 chain C = molecular target: T1, DHT08 chain C; experiment: co-expression, IMAC, SEC, native MS; chains of one ABC heterotrimer
# Excerpt: (§1) Genes encoding 85 heterotrimers in a tricistronic expression vector were obtained, and the proteins were expressed in E. coli and purified via IMAC with only one chain having the 6×His-tag. Nine of the designs (FIG. 3a) had monodisperse SEC peaks (FIG. 3b), were almost exclusively ABC by nMS, and had good SAXS fits to the design models (Table 7). […] Eight of the designs are parallel heterotrimers, while DHTO9 is an antiparallel heterotrimer. […] For 3 other designs, only the ABC heterotrimer was determined to form by nMS (when the respective SEC fraction was analyzed) but the heterotrimer SEC peak was preceded by soluble aggregate that would make building with these constructs difficult downstream. We explored the dependence of cooperativity on connectivity between the three chains by changing the positions of the loops across different helices in DHT03, while keeping the rest of the interface intact. […] The ability to sustain alternate loop closures increases the number of heteromeric building blocks available for future nanostructure assembly applications and may enable rigid fusion of functional domains to the different termini available.
# (§2) Samples were analyzed by online buffer exchange native mass spectrometry (nMS) to evaluate sample purity and accurately determine oligomeric states⁴². Multiple instruments were used as the analyses were carried out over the duration of the protein design process. The mass spectrometers used for detection were a Q Exactive™ UHMR modified with a surface-induced dissociation device and an Exactive™ Plus EMR modified with a selection quadrupole and a surface-induced dissociation device (Thermo Fisher Scientific)⁴³. The liquid chromatography systems used for the buffer exchange include a Vanquish™ Duo UHPLC and a Dionex™ Ultimate 3000 HPLC (Thermo Fisher Scientific). A heated electrospray ionization source (HESI-II, Thermo Fisher Scientific) with a spray voltage of ˜4 kV was used for ionization.
# DHT08 chain B = molecular target: T2, DHT08 chain B; experiment: as above
# Excerpt: as §1, §2
# C4-DHT03-02 chain B = molecular target: T3, C4-DHT03-02 chain B; experiment: chains mixed and annealed, SEC, negative stain EM; A4B4C4 ring
# [1] = molecular target: T4, DHT03 chain C (SEQ ID NO: 59); experiment: as above
# DHT07 chain B = molecular target: T5, DHT07 chain B; experiment: co-expression, IMAC, SEC, native MS; chains of one ABC heterotrimer
# Excerpt: as §1, §2
# DHT07 chain C = molecular target: T6, DHT07 chain C; experiment: as above
# Excerpt: as §1, §2
# [2] = molecular target: T7, DHT03_variant_AB-3 chain B; experiment: native MS; loop-connectivity variant of DHT03, AB heterodimer
# [3] = molecular target: T8, DHT03_variant_AB-1 chain B; experiment: as above
# [4] = molecular target: T9, DHT03_variant_AB-4 chain B; experiment: as above
# DHT09 chain C = molecular target: T10, DHT09 chain C; experiment: co-expression, IMAC, SEC, native MS; chains of one ABC heterotrimer
# Excerpt: as §1, §2
# DHT09 chain B = molecular target: T11, DHT09 chain B; experiment: as above
# Excerpt: as §1, §2
# DHT04 chain C = molecular target: T12, DHT04 chain C; experiment: as above
# Excerpt: as §1, §2
# DHT04 chain B = molecular target: T13, DHT04 chain B; experiment: as above
# Excerpt: as §1, §2
# DHT06 chain B = molecular target: T14, DHT06 chain B; experiment: as above
# Excerpt: as §1, §2
# DHT06 chain C = molecular target: T15, DHT06 chain C; experiment: as above
# Excerpt: as §1, §2
# DHT02 chain C = molecular target: T16, DHT02 chain C; experiment: as above
# Excerpt: as §1, §2
# DHT02 chain B = molecular target: T17, DHT02 chain B; experiment: as above
# Excerpt: as §1, §2
# DHT10 chain B = molecular target: T18, DHT10 chain B; experiment: as above
# Excerpt: as §1, §2
# DHT10 chain C = molecular target: T19, DHT10 chain C; experiment: as above
# Excerpt: as §1, §2
# [5] = molecular target: T20, DHT03_variant_AB-2 chain B; experiment: native MS; loop-connectivity variant of DHT03, AB heterodimer
# [6] = molecular target: T21, DHT03_variant_ABC-2 chain B; experiment: native MS; loop-connectivity variant of DHT03, chains of one ABC heterotrimer
# [7] = molecular target: T22, DHT03_variant_ABC-2 chain C; experiment: as above
binder,measurement,setting,value
B1,binding result,DHT08 chain C,binds
same,binding result,DHT08 chain B,binds
B2,binding result,C4-DHT03-02 chain B,binds
same,binding result,[1],binds
B3,binding result,DHT07 chain B,binds
same,binding result,DHT07 chain C,binds
B4,binding result,[2],binds
B5,binding result,[3],binds
B6,binding result,[4],binds
B7,binding result,DHT09 chain C,binds
same,binding result,DHT09 chain B,binds
B8,binding result,DHT04 chain C,binds
same,binding result,DHT04 chain B,binds
B9,binding result,DHT06 chain B,binds
same,binding result,DHT06 chain C,binds
B10,binding result,DHT02 chain C,binds
same,binding result,DHT02 chain B,binds
B11,binding result,DHT10 chain B,binds
same,binding result,DHT10 chain C,binds
B12,binding result,[5],binds
HEELADEVRKSSEELKKIIEEVEKILRKVDDILYKVG (designed binder) [DHT03_variant_ABC-2 chain A],binding result,[6],binds
same,binding result,[7],binds
